Laboratory results taken from publication PMC4971492.

Molecular target: Bio-GFP-tagged KIF21A STALK (whole KIF21A stalk domain) (human)
Test: single-molecule GFP counting (TIRF); HEK293T cell extracts with Bio-GFP-tagged constructs, molecules immobilised on coverslips, initial fluorescence intensities against monomeric GFP and dimeric EB1-GFP; room temperature

Sequence of Bio-GFP-tagged KIF21A STALK (whole KIF21A stalk domain) (domain or fragment) (Q7Z4S6 whole entry, the tested form may be a part): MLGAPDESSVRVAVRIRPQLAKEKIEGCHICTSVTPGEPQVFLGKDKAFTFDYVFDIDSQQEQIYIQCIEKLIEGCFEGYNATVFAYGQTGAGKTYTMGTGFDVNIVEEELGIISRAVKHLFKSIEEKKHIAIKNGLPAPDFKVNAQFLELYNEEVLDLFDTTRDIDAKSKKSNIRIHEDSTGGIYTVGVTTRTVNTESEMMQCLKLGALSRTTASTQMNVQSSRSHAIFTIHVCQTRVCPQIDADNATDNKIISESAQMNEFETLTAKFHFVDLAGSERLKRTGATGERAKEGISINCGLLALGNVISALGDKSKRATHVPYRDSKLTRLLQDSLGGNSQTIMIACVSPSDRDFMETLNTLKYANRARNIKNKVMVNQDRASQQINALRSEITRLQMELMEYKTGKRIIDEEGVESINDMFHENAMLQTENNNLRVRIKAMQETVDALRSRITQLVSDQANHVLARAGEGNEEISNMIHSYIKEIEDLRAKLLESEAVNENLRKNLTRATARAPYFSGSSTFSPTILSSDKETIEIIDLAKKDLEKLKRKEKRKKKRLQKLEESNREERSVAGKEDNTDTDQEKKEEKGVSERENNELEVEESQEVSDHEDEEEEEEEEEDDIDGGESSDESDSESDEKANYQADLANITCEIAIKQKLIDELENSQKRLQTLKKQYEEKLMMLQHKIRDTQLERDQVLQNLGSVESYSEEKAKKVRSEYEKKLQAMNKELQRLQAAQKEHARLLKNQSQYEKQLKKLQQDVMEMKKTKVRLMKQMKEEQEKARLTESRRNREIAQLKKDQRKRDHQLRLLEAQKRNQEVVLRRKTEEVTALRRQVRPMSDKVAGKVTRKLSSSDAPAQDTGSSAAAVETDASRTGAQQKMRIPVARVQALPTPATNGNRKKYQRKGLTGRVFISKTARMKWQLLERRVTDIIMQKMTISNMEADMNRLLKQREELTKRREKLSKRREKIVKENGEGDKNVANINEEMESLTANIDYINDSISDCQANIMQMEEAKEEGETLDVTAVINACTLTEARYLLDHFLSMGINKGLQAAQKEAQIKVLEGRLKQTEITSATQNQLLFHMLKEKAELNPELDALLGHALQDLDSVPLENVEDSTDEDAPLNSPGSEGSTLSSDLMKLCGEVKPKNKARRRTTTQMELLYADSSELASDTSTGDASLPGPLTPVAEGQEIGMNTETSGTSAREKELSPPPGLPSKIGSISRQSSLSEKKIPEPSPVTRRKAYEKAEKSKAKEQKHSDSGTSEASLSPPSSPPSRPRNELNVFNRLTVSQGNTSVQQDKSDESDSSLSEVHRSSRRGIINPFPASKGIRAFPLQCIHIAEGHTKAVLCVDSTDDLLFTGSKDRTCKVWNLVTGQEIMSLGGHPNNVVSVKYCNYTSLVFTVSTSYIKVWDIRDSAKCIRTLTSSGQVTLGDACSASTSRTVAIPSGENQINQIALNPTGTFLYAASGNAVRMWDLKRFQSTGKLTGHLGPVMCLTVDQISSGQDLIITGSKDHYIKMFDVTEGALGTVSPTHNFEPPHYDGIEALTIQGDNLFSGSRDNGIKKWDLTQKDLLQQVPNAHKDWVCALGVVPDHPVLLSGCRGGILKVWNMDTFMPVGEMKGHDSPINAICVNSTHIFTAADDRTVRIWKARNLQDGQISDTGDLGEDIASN

Work on “Bio-GFP-tagged KIF21A STALK (whole KIF21A stalk domain) (domain or fragment)” yielded a stoichiometry N of 2.
